Data on two substances can be found in US12331334B2.

In this assay the target is human C3 FRET peptide.

Substance “WT uPA with C122S-Fc (No PP) (Fc fusion)” registered an Activity (nM EDANS/min/µL sample), expi293 supernatant on 40 µM human C3 FRET peptide (nM EDANS/min/µL sample) of 0.

Substance “WT uPA with C122S - HSA (No PP) (enzyme)” gave an Activity (nM EDANS/min/µL sample), expi293 supernatant on 40 µM human C3 FRET peptide (nM EDANS/min/µL sample) of 0.1.
